Key:
[1] = target: OmpA with T7⋅tag epitope inserted into loop 1 (Escherichia coli) (UniProt P0A910); test: flow cytometry of whole cells, biotinylated mAb then streptavidin-phycoerythrin
[2] = target: OmpA with T7⋅tag epitope inserted into loop 4 (Escherichia coli) (UniProt P0A910); test: as above

anti-T7⋅tag monoclonal antibody
fold fluorescence above background control cells [1]: 300 fold | fold fluorescence above background cellular autofluorescence [2]: 2 fold
